Assays:
Assay in all cases: cell-based or functional assay
[1] = biological target: gp41 of HIV-1 strain DJ258 (HIV-1 strain DJ258)
[2] = biological target: gp41 of HIV-1 strain CC 1/85 (HIV-1 strain CC 1/85)
[3] = biological target: gp41 of HIV-1 strain HC4 (HIV-1 strain HC4)
[4] = biological target: gp41 of HIV-1 strain NL4-3 (HIV-1 strain NL4-3)

T-20 (peptide)
Inhibition of HIV-1 infectivity, IC50 (nM), DJ258 [1]: 330 nM | Inhibition of HIV-1 infectivity, IC50 (nM), CC 1/85 [2]: 1400 nM | Inhibition of HIV-1 infectivity, IC50 (nM), HC4 [3]: 250 nM | Inhibition of HIV-1 infectivity, IC50 (nM), NL4-3 [4]: 700 nM

From US20130177981A1
